These results are taken from US20250295734A1, “ANTICOAGULANT PROTEINS AND THEIR USE FOR TREATING DISEASES ASSOCIATED WITH THE ACTIVATION OF NEUTROPHILS” (BIOXODES, priority 2018, published 2025).

The target in series [1] is T1, FXIIa (Homo sapiens, UniProt P00748).
T1 construct: The resulting α-FXIIa has a heavy chain of 50 kDa, connected to a light chain of 28 kDa
T1 sequence (P00748 20-372 limits assumed): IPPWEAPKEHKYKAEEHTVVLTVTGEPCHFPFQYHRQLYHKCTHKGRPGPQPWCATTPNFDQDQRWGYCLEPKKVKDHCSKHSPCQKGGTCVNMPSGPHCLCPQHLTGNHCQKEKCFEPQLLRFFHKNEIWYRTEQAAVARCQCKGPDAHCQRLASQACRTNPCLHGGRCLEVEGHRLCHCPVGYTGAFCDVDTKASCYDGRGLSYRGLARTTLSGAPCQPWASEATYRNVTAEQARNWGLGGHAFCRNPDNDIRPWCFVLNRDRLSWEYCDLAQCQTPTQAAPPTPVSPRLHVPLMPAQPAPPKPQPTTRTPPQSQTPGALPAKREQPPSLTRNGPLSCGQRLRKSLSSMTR
T1 sequence (P00748 373-615 limits assumed): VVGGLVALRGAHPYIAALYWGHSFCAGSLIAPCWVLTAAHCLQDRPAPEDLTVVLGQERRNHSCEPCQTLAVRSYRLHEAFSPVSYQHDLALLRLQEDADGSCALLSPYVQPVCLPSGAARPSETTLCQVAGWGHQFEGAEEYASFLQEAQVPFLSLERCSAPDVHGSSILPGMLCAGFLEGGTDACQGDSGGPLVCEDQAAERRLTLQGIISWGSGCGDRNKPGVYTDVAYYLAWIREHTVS
As to conditions: cited from earlier work.

The conditions of series [2]: rodents; pharmacological therapeutic active dose; cited from earlier work.
The target in series [3] is plasmin (Homo sapiens, UniProt P00747). The conditions noted are these: cited from earlier work.
Series [4] relates to human neutrophils. As to the kind of experiment: Apoptosis/necrosis assay (Annexin V / Propidium Iodide). The class given is cell-based. As to conditions: recombinant Ir-CPI 15.3 μg/mL (2 μM); 1 h incubation; 4 donors. How it is done:
The effect of recombinant Ir-CPI on apoptosis/necrosis of human neutrophils was assessed. For this purpose, freshly isolated neutrophils from 4 donors were pre-treated for 1 h with recombinant Ir-CPI at 15.3 μg/mL and then incubated with Annexin V-FITC, with Propidium Iodide (PI) and with anti-human CD66b-PE antibody for cell identification. As negative control, neutrophils were only incubated with Annexin V-PI and CD66b for cell identification.
Polymorphonuclear neutrophils (PMNs) were isolated with StraightFrom® Whole Blood CD15 MicroBeads kits from Miltenyi Biotech. Briefly, after erythrocytes lysis, the blood cells were incubated in the presence of CD15 microbeads. Blood cells were washed with separation buffer and centrifuged at 300 g for 10 min at room temperature. The pellets containing magnetically labeled cells were resuspended in separation buffer and applied to the equilibrated whole blood column placed on the QuadroMACS. After extensive washing, the column was removed from the magnetic separator, and labeled cells were eluted using whole blood elution buffer. Finally, the PMNs were centrifuged at 300 g for 10 min and resuspended in Hank's buffer with calcium and magnesium. […]
Apoptosis was detected by initially staining the cells with Annexin V and Propidium Iodide solution followed by flow cytometry analysis. […]

Series [5] concerns human neutrophils. As to the kind of experiment: Phagocytosis assay with pHrodo E. coli bioparticles. The class given is cell-based. As to conditions: for neutrophil phagocytic activity: 3 donors. The protocol: The effect of Ir-CPI on the phagocytic activity of human neutrophils was assessed. For this purpose, freshly isolated neutrophils from 3 donors were pre-treated for 1 h with recombinant Ir-CPI at 2 different concentrations (5.0 or 15.3 μg/mL) and then incubated in the presence of pH-rodo® E. coli bioparticles (Sartorius). To evaluate the phagocytic activity, fluorescence was monitored every 15 min for up to 48 hours.
Neutrophils were directly isolated from whole blood by using the EasySep™ Direct Human Neutrophil Isolation Kit (StemCell) and according to the manufacturer's protocol. The purification is a negative selection (elimination of unwanted cell populations) to obtain intact neutrophils.
pHrodo® Green E. coli Bioparticles were resuspended at 1 mg/mL in PBS, vortexed and sonicated according to the manufacturer's protocol and then stored at 4° C. overnight. Then, 25.000 freshly isolated neutrophils, resuspended in RPMI 1640 medium containing 10% of FBS and supplements (2 mM Glutamine, 1% NEAA, 1 mM Sodium pyruvate, 50 μM B-mercaptoethanol and 50 μg/ml Gentamycin), were seeded per well in a 96 well-plate and preincubated for 1 h at 37° C., 5% CO2 with Ir-CPI at two different concentrations (2 μM and 0.65 μM). Then, pHrodo® Green E. coli Bioparticles were added at 10 μg/well and the plate was incubated in the Incucyte® Live-Cell Analysis System. Pictures were taken every 15 minutes for 48 hours. Two negative controls were performed: (1) only the neutrophils were seeded in absence of Ir-CPI and without particles, and (2) neutrophils were seeded in absence of Ir-CPI and incubated with the particles. All conditions were performed in triplicates.
To analyse neutrophil phagocytosis, the Green total area (μm2/image) was measured in each well every 15 minutes for 48 hours (2 pictures/well). Briefly, the IncuCyte® Basic Analysis software allows for the quantification of fluorescent object metrics in real-time. […]

For series [6], the system named is venous thrombus formation. The conditions noted are these: dose-dependent; cited from earlier work.
Series [7] addresses FXI (Homo sapiens, UniProt P03951). The conditions noted are these: cited from earlier work.
Series [8] has as its target T1, FXIIa. As to conditions: aPTT-based test, FXII deficient plasma; cited from earlier work.

Entries after “also recorded” stand apart in the source; their conditions may differ.

plasmin, sequence (P00747 97-580 limits assumed, species assumed): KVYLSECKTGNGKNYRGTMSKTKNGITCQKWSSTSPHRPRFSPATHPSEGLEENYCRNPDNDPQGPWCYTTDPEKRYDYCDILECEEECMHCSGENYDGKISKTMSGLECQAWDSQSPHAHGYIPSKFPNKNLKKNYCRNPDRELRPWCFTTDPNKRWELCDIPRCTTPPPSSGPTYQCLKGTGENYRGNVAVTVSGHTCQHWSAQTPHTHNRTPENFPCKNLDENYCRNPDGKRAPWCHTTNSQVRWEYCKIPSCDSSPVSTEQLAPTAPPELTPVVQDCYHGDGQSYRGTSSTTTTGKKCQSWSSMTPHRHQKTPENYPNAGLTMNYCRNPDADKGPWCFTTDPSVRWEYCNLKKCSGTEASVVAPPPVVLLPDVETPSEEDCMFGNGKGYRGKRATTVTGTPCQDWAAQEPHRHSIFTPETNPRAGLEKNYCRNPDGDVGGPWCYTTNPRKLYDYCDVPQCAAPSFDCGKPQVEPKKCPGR
plasmin, sequence (P00747 581-810 limits assumed, species assumed): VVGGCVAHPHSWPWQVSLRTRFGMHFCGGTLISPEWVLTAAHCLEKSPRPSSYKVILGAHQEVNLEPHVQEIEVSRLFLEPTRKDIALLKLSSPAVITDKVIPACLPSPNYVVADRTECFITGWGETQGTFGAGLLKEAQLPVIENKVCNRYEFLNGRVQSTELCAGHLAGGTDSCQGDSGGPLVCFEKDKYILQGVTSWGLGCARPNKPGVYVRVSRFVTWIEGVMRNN

B1: Ir-CPI: Ixodes ricinus salivary gland polypeptide, contact phase inhibitor, MW=7660 Da; sequence SEQ ID NO: 1 or SEQ ID NO: 2 (protein)
chain: ANHKGRGRPAKCKLPPDDGPCRARIPSYYFDRKTKTCKEFMYGGCEGNENNFENITTCQEECRAKKV
Turning to B1, in series [1], the “binding to FXIIa” value is on record as “binds”. Also, the bleeding result in series [2] is on record as “does not increase bleeding”. Besides, in series [3], the binding to plasmin result is “binds”. For the same molecule, in series [4], the induction of apoptosis entry is listed as “did not induce apoptosis”; the “mean necrotic, dead, apoptotic, and live cells vs negative control” value was “no statistical difference”. For the same molecule, the neutrophil phagocytic activity result in series [5] (recombinant Ir-CPI 5.0 μg/mL (0.65 μM)) was “no evidence for an effect”. For the same molecule, in series [5] (recombinant Ir-CPI 15.3 μg/mL (2 μM)), the neutrophil phagocytic activity entry was “marginal (p-value just below threshold for significance) evidence for an increase”. For the same molecule, the “decrease of the phagocytic activity of human neutrophils” value in series [5] (whatever the concentration) is “did not induce a decrease”. Further, in series [6], the venous thrombus formation entry is on record as “reduces venous thrombus formation”. In addition, in series [7], the “binding to FXI zymogen” value is recorded as “but not to their zymogen forms; also recorded: unable to bind”. The FXIIa clotting activity entry in series [8] is recorded as “inhibits”.
